In US20240132578A1:

Tests used:
Assay in all cases: cell-based or functional assay
[1] = target: HIV-1 Env of isolate 93MW959 (subtype C) (HIV-1)
[2] = target: HIV-1 Env of isolate 97ZA012 (subtype C) (HIV-1)
[3] = target: HIV-1 Env of isolate 98IN022 (subtype C) (HIV-1)
[4] = target: HIV-1 Env of isolate MGRM-C-001 (subtype C) (HIV-1)
[5] = target: HIV-1 Env of isolate MGRM-C-002 (subtype C) (HIV-1)
[6] = target: HIV-1 Env of isolate MGRM-C-004 (subtype C) (HIV-1)
[7] = target: HIV-1 Env of isolate MGRM-C-005 (subtype C) (HIV-1)
[8] = target: HIV-1 Env of isolate MGRM-C-006 (subtype C) (HIV-1)
[9] = target: HIV-1 Env of isolate MGRM-C-007 (subtype C) (HIV-1)
[10] = target: HIV-1 Env of isolate MGRM-C-008 (subtype C) (HIV-1)
[11] = target: HIV-1 Env of isolate MGRM-C-009 (subtype C) (HIV-1)
[12] = target: HIV-1 Env of isolate MGRM-C-010 (subtype C) (HIV-1)
[13] = target: HIV-1 Env of isolate MGRM-C-012 (subtype C) (HIV-1)
[14] = target: HIV-1 Env of isolate MGRM-C-013 (subtype C) (HIV-1)
[15] = target: HIV-1 Env of isolate MGRM-C-014 (subtype C) (HIV-1)
[16] = target: HIV-1 Env of isolate MGRM-C-015 (subtype C) (HIV-1)
[17] = target: HIV-1 Env of isolate MGRM-C-017 (subtype C) (HIV-1)
[18] = target: HIV-1 Env of isolate MGRM-C-019 (subtype C) (HIV-1)
[19] = target: HIV-1 Env of isolate MGRM-C-020 (subtype C) (HIV-1)
[20] = target: HIV-1 Env of isolate MGRM-C-022 (subtype C) (HIV-1)
[21] = target: HIV-1 Env of isolate MGRM-C-023 (subtype C) (HIV-1)
[22] = target: HIV-1 Env of isolate MGRM-C-024 (subtype C) (HIV-1)
[23] = target: HIV-1 Env of isolate MGRM-C-025 (subtype C) (HIV-1)
[24] = target: HIV-1 Env of isolate MGRM-C-026 (subtype C) (HIV-1)
[25] = target: HIV-1 Env of isolate MGRM-C-027 (subtype C) (HIV-1)
[26] = target: HIV-1 Env of isolate MGRM-C-028 (subtype C) (HIV-1)
[27] = target: HIV-1 Env of isolate MGRM-G-001 (subtype G), on pseudovirus (HIV-1)
[28] = target: HIV-1 Env of isolate MGRM-G-004 (subtype G), on pseudovirus (HIV-1)
[29] = target: HIV-1 Env of isolate MGRM-G-006 (subtype G), on pseudovirus (HIV-1)
[30] = target: HIV-1 Env of isolate MGRM-G-009 (subtype G), on pseudovirus (HIV-1)
[31] = target: HIV-1 Env of isolate MGRM-G-011 (subtype G), on pseudovirus (HIV-1)
[32] = target: HIV-1 Env of isolate MGRM-G-013 (subtype G), on pseudovirus (HIV-1)
[33] = target: HIV-1 Env of isolate MGRM-G-014 (subtype G), on pseudovirus (HIV-1)
[34] = target: HIV-1 Env of isolate MGRM-G-015 (subtype G), on pseudovirus (HIV-1)
[35] = target: HIV-1 Env of isolate MGRM-G-016 (subtype G), on pseudovirus (HIV-1)
[36] = target: HIV-1 Env of isolate MGRM-G-017 (subtype G), on pseudovirus (HIV-1)
[37] = target: HIV-1 Env of isolate MGRM-G-019 (subtype G), on pseudovirus (HIV-1)
[38] = target: HIV-1 Env of isolate MGRM-G-024 (subtype G), on pseudovirus (HIV-1)
[39] = target: HIV-1 Env of isolate MGRM-G-025 (subtype G), on pseudovirus (HIV-1)
[40] = target: HIV-1 Env of isolate MGRM-G-027 (subtype G), on pseudovirus (HIV-1)
[41] = target: HIV-1 Env of isolate MGRM-G-028 (subtype G), on pseudovirus (HIV-1)
[42] = target: HIV-1 JR-CSF Env P470A (HIV-1 JR-CSF) (UniProt P20871)
[43] = target: HIV-1 JR-CSF Env R480A (HIV-1 JR-CSF) (UniProt P20871)
[44] = target: aMLV envelope, on pseudovirus (negative control)
[45] = target: HIV-1 Env of isolate 6535.3 (subtype B) (HIV-1)
[46] = target: HIV-1 Env of isolate 92BR020 (subtype B) (HIV-1)
[47] = target: HIV-1 Env of isolate 93TH305 (subtype B) (HIV-1)
[48] = target: HIV-1 Env of isolate APV 13 (subtype B) (HIV-1)
[49] = target: HIV-1 Env of isolate APV 6 (subtype B) (HIV-1)
[50] = target: HIV-1 Env of isolate APV_17 (subtype B) (HIV-1)

B1: PGT-126 (antibody, V domains shown)
VH: QPQLQESGPGLVEASETLSLTCTVSGDSTAACDYFWGWVRQPPGKGLEWIGGLSHCAGYYNTGWTYHNPSLKSRLTISLDTPKNQVFLKLNSVTAADTAIYYCARFDGEVLVYHDWPKPAWVDLWGRGTLVTVSS
VL: QSALTQPPSASGSPGQSISISCTGTSNRFVSWYQQHPGKAPKLVIYGVNKRPSGVPDRFSGSKSGNTASLTVSGLQTDDEAVYYCSSLVGNWDVIFGGGTKLTVL
IC50 (µg/mL), pseudovirus neutralization [1]: 9.44 µg/mL | IC50 (µg/mL), pseudovirus neutralization [2]: 0.042 µg/mL | IC50 (µg/mL), pseudovirus neutralization [3]: 0.279 µg/mL | IC50 (µg/mL), pseudovirus neutralization [4]: > 50 µg/mL | IC50 (µg/mL), pseudovirus neutralization [5]: 0.011 µg/mL | IC50 (µg/mL), pseudovirus neutralization [6]: 0.033 µg/mL | IC50 (µg/mL), pseudovirus neutralization [7]: 0.298 µg/mL | IC50 (µg/mL), pseudovirus neutralization [8]: 0.014 µg/mL | IC50 (µg/mL), pseudovirus neutralization [9]: 25.3 µg/mL | IC50 (µg/mL), pseudovirus neutralization [10]: 2.12 µg/mL | IC50 (µg/mL), pseudovirus neutralization [11]: > 50 µg/mL | IC50 (µg/mL), pseudovirus neutralization [12]: > 50 µg/mL | IC50 (µg/mL), pseudovirus neutralization [13]: 0.111 µg/mL | IC50 (µg/mL), pseudovirus neutralization [14]: > 50 µg/mL | IC50 (µg/mL), pseudovirus neutralization [15]: > 50 µg/mL | IC50 (µg/mL), pseudovirus neutralization [16]: 3.14 µg/mL | IC50 (µg/mL), pseudovirus neutralization [17]: 0.17 µg/mL | IC50 (µg/mL), pseudovirus neutralization [18]: 0.005 µg/mL | IC50 (µg/mL), pseudovirus neutralization [19]: > 50 µg/mL | IC50 (µg/mL), pseudovirus neutralization [20]: 0.96 µg/mL | IC50 (µg/mL), pseudovirus neutralization [21]: 0.065 µg/mL | IC50 (µg/mL), pseudovirus neutralization [22]: > 50 µg/mL | IC50 (µg/mL), pseudovirus neutralization [23]: 0.786 µg/mL | IC50 (µg/mL), pseudovirus neutralization [24]: 0.007 µg/mL | IC50 (µg/mL), pseudovirus neutralization [25]: 15.6 µg/mL | IC50 (µg/mL), pseudovirus neutralization [26]: 0.196 µg/mL | IC50 (µg/mL), neutralization of pseudovirus [27]: 0.038 µg/mL | IC50 (µg/mL), neutralization of pseudovirus [28]: > 50 µg/mL | IC50 (µg/mL), neutralization of pseudovirus [29]: > 50 µg/mL | IC50 (µg/mL), neutralization of pseudovirus [30]: > 50 µg/mL | IC50 (µg/mL), neutralization of pseudovirus [31]: 7.32 µg/mL | IC50 (µg/mL), neutralization of pseudovirus [32]: 48.8 µg/mL | IC50 (µg/mL), neutralization of pseudovirus [33]: 0.009 µg/mL | IC50 (µg/mL), neutralization of pseudovirus [34]: > 50 µg/mL | IC50 (µg/mL), neutralization of pseudovirus [35]: > 50 µg/mL | IC50 (µg/mL), neutralization of pseudovirus [36]: > 50 µg/mL | IC50 (µg/mL), neutralization of pseudovirus [37]: 0.018 µg/mL | IC50 (µg/mL), neutralization of pseudovirus [38]: > 50 µg/mL | IC50 (µg/mL), neutralization of pseudovirus [39]: 17.1 µg/mL | IC50 (µg/mL), neutralization of pseudovirus [40]: 0.875 µg/mL | IC50 (µg/mL), neutralization of pseudovirus [41]: 0.012 µg/mL | Fold IC50 increase relative to wild-type [42]: 2.7 fold | Fold IC50 increase relative to wild-type [43]: 1.9 fold | IC50 (µg/mL), neutralization of pseudovirus [44]: > 50 µg/mL

B2: PGT-128 (antibody, V domains shown)
VH: QPQLQESGPTLVEASETLSLTCAVSGDSTAACNSFWGWVRQPPGKGLEWVGSLSHCASYWNRGWTYHNPSLKSRLTLALDTPKNLVFLKLNSVTAADTATYYCARFGGEVLRYTDWPKPAWVDLWGRGTLVTVSS
VL: QSALTQPPSASGSPGQSITISCTGTSNNFVSWYQQHAGKAPKLVIYDVNKRPSGVPDRFSGSKSGNTASLTVSGLQTDDEAVYYCGSLVGNWDVIFGGGTKLTVL
IC50 (µg/mL), pseudovirus neutralization [45]: 0.011 µg/mL | IC50 (µg/mL), pseudovirus neutralization [46]: 0.009 µg/mL | IC50 (µg/mL), pseudovirus neutralization [47]: 0.006 µg/mL | IC50 (µg/mL), pseudovirus neutralization [48]: 0.008 µg/mL | IC50 (µg/mL), pseudovirus neutralization [49]: 0.007 µg/mL | IC50 (µg/mL), pseudovirus neutralization [50]: 0.016 µg/mL | IC50 (µg/mL), neutralization of pseudovirus [27]: 0.019 µg/mL | IC50 (µg/mL), neutralization of pseudovirus [28]: > 50 µg/mL | IC50 (µg/mL), neutralization of pseudovirus [29]: > 50 µg/mL | IC50 (µg/mL), neutralization of pseudovirus [30]: > 50 µg/mL | IC50 (µg/mL), neutralization of pseudovirus [31]: 8.21 µg/mL | IC50 (µg/mL), neutralization of pseudovirus [32]: 0.995 µg/mL | IC50 (µg/mL), neutralization of pseudovirus [33]: 0.004 µg/mL | IC50 (µg/mL), neutralization of pseudovirus [34]: > 50 µg/mL | IC50 (µg/mL), neutralization of pseudovirus [35]: > 50 µg/mL | IC50 (µg/mL), neutralization of pseudovirus [36]: 0.319 µg/mL | IC50 (µg/mL), neutralization of pseudovirus [37]: 0.01 µg/mL | IC50 (µg/mL), neutralization of pseudovirus [38]: 0.095 µg/mL | IC50 (µg/mL), neutralization of pseudovirus [39]: 0.017 µg/mL | IC50 (µg/mL), neutralization of pseudovirus [40]: 0.313 µg/mL | IC50 (µg/mL), neutralization of pseudovirus [41]: 0.008 µg/mL | Fold IC50 increase relative to wild-type [43]: 0.1 fold | IC50 (µg/mL), neutralization of pseudovirus [44]: > 50 µg/mL
